In the supplement of paper PMC9170038:

Tested on: MS2 coat protein
Test: apparent KD of MS2 coat protein; designed switch direction (-1 OFF switch, 1 ON switch): 1; higher = weaker reporter binding
Outline: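 The reported apparent KD is a per-design median over clusters, from curve fits of normalised cluster fluorescence. Protein titrations used SNAP-549-labelled MS2 coat protein, doubled from 0.7 or 1.5 nM to 3 µM, in Tris-HCl pH 7.5 buffer with KCl, MgCl2, BSA, DTT, tRNA and Tween-20, with no input, 200 uM small-molecule ligand, or an oligonucleotide input. The RNA switches were transcribed on Illumina chips by stalled E. coli RNA polymerase.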

[1] = input ligand: microRNA oligo, concentration not stated
[2] = Eterna round: R95, input ligand: FMN 200 uM
[3] = Eterna round: R95, input ligand: microRNA oligo, concentration not stated
[4] = Eterna round: R95, input ligand: none

| Sequence | apparent KD of MS2 coat protein (input ligand: FMN 200 uM) [nM] | apparent KD of MS2 coat protein [1] [nM] | apparent KD of MS2 coat protein (input ligand: none) [nM] | apparent KD of MS2 coat protein [2] [nM] | apparent KD of MS2 coat protein [3] [nM] | apparent KD of MS2 coat protein [4] [nM] |
| --- | --- | --- | --- | --- | --- | --- |
| GAGCCAGUCCGAGGAUAUUCAUAUUAAAACAUGAGGAUCACCCAUGUAGGCUCAGAAGAGCCUUGGGAGAAGGCGGACUGGCUC [Xeonanisa] (Eterna round: R96, puzzle: Same State NG 2) | 23.3 | 214 | 366 | – | – | – |
| GUGCUCGUGUAAGGAUAUGCAGCCGUUUCGGCUGCAGAAGGUACUAUAAUACAUGAGGAUCACCCAUGUCUCUAUAGUUUGGUG [salish99_SSNG1_r04_905] (Eterna round: R96, puzzle: Same State NG 1) | – | 22.3 | – | – | – | – |
| GCAGCCGGCACUGAGGAUAUUCAUAUUAAAACAUGAGGAUCACCCAUGUAGGCCAGAAGGCCUUGGGAGAAGGCAGGUCGGCUGG [Mat - Same State 2 - Mod of UCT - D63] (puzzle: Same State 2) | – | – | – | 20.8 | 219 | 232 |
| GCGGAACAUGAGGAUCACCCAUGUGGAGGGUGUAAAGGAUAUUAUAGAGAGAAGGUAGGGUAAGAAGGUUGCUGGG [JR_SS1_Sub090] (Eterna round: R96, puzzle: Same State 1) | 899 | 582 | 994 | – | – | – |
| UUGAGGAAUUAAGGAUAUUGAGUACAUAUGUUUAACAUGAGGAUCACCCAUGUGGGUUGCGGUAUCGAGAAGGUAAAUUACUAC [salish99_SSNG2_r04_801] (Eterna round: R96, puzzle: Same State NG 2) | 113 | 73.2 | 120 | – | – | – |
| UGUUGUAUUACAGGAUAUCUAGUAUUUUUAUUCAGAGAAGGGUAUUCACAUGAGGAUCACCCAUGUAUAUACGAGGAAGUUGUG [JMF's solution 56] (Eterna round: R96, puzzle: Same State NG 1) | – | 34.1 | – | – | – | – |
| AGUAGUGUAACAUGAGGAUCACCCAUGUAAGAAGAUGUAACCUAGGAUAUGGAUGUUAUGUUUGACCAGAAGGAGGAUUGUUUA [JR_SSNG3_Sub040] (Eterna round: R96, puzzle: Same State NG 3) | 22.6 | 32.1 | 37.1 | – | – | – |
| CUGAGCGAUCGAGGAUAUCACGUCGAAUAGACGUGAGAAGGCGAUCAUAACAUGAGGAUCACCCAUGUAUUACAUGAAGCUCAG [SSNG1/4-A1] (Eterna round: R96, puzzle: Same State NG 1) | 13.2 | 10.5 | 17.8 | – | – | – |
| UAGAACAAGCUUUUUGCCCGUCUUAUAUAACAUGAGGAUCACCCAUGUAAGGUGAAAGUUAGAGAGUGGAGGUUGAA [JR_SHM208A_Sub048] (puzzle: Sensor for hsa-mir-208a) | – | – | – | 216 | 193 | 156 |
| GCUACCAAUAAAGCCAACAUGAGGAUCACCCAUGUAUGUUGGUAGGAUAUCGUUUGCAAAGCAAACGAGAAGGGCUAAGGUAGC [Mat - Same State NG 3 - JL Mod - D76] (Eterna round: R96, puzzle: Same State NG 3) | 39.1 | 28.2 | 43.9 | – | – | – |
| GAGUGGUGGAGAGGAUAUACAUUGAUAAUCACUGUAGAAGGUUCUAACAUGAGGAUCACCCAUGUAGGACUAUUCCUGAGAGUU [Parity 53 - Jieux - Same State NG 1] (Eterna round: R96, puzzle: Same State NG 1) | 11.6 | 9.89 | 12 | – | – | – |
| UUUUUUUUUUCGAGACAAGCUUUUUGAUCACAUGAGGAUCACCCAUGUCUCGUCUUAUUUUUUUUUUUUUUUUUUUU [BA Sensor hsa-mir-208a - 2 - 1] (puzzle: Sensor for hsa-mir-208a) | – | – | – | 343 | 33.6 | 21.3 |
| AAAUAGCAUGGAAACAUGCUAAAAACUGUACAUGAGGAUCACCCAUGUCAUGUGUAGGCUUUUUGUUCGUCUUAUAA [Effort 12] (Eterna round: R96, puzzle: Sensor for hsa-mir-208a) | 25.5 | 12.3 | 27.8 | – | – | – |
| GGAGCCAAGGCAGGAUAUUCAUAUUAACAACAUGAGGAUCACCCAUGUAAGGCCAGAAGGCCUUGGGAGAAGGGCCAUGGCUCG [Xeonanis - 13 mod4] (Eterna round: R96, puzzle: Same State NG 2) | 26.2 | 110 | 187 | – | – | – |
| GGUCCAGCCUGAGCUGGACAAAAGCAUGUACAUGAGGAUCACCCAUGUCAUGUACAAGCUUUUUGCUCGUCAUAAAG [Mat - hsa-mir-208a - 97] (puzzle: Sensor for hsa-mir-208a) | – | – | – | 228 | 18.2 | 334 |
